Assay [1] deals with bovine serum albumin (BSA, Sigma) (bovine) (UniProt P02769). Description: ELISA, serum albumin coated, FNCBD-EGF (concentration not given), detection with anti-FNCBD monoclonal antibody.
Assay [2] shares this target. The experiment in a line: ELISA, serum albumin coated, 0.1 µg/ml FNCBD-FGF, detection with anti-FNCBD monoclonal antibody.

Sequence of UniProt P02769 (P02769 25-607 limits assumed): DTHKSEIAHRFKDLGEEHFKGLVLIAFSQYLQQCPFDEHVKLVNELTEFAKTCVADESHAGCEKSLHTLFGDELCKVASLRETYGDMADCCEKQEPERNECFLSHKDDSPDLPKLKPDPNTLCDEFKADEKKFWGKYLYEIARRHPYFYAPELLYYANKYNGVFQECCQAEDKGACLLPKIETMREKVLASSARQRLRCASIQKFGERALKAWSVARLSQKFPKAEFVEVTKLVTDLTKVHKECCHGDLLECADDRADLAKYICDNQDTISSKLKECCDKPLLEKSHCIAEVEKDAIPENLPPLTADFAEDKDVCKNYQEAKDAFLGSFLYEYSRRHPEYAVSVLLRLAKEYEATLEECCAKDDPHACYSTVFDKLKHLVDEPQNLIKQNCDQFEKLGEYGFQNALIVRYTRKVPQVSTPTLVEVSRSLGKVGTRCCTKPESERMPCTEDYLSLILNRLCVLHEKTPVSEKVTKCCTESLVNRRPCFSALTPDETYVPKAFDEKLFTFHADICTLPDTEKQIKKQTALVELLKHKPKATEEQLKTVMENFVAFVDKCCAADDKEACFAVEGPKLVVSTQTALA

Substance “human FNCBD/human EGF hybrid polypeptide (FNCBD-EGF)” showed an absorption at 492 nm (absorption (492 nm)) in assay [1] of 0.11.
In turn, “human FNCBD/human bFGF hybrid polypeptide (FNCBD-FGF)” had an absorption at 492 nm (absorption (492 nm)) in assay [2] of 0.27.
